A word on the pKa: it is the negative logarithm of the acid dissociation constant. As a reminder, the stoichiometry N is a count of units in the complex or per binding partner.

We go through two molecules from PMC5646864.

One series has as its target Cys61 (UniProt position 61, KEIAGCENRVW). Particulars: not stated (reduced thiol implied; discussed for free CsdE); cited from earlier work.
For series [1], the target named is T1, Escherichia coli CsdE (Escherichia coli), P0AGF2.
T1 chain: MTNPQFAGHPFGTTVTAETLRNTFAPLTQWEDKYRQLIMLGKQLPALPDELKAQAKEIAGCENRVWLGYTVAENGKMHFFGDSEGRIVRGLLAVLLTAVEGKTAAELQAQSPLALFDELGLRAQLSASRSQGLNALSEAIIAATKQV
The series can be described thus: crystal structure; native CsdE at 40 mg/ml in 10 mM Tris-HCl pH 8, 2 mM 2-mercaptoethanol; crystallised in 0.1 M sodium citrate pH 6.5, 20% (w/v) PEG-MME 2000 at 297 K; two monomers in the asymmetric unit joined by a Cys61-Cys61 disulfide bridge; phased by Se-SAD on SeMet crystals. Particulars: remark: other sources report otherwise.

As for “Sulfur acceptor protein CsdE (YgdK) (Escherichia coli)”, in the series with Cys61, the pKa is 6.5.

B1: Escherichia coli CsdE, P0AGF2 1-147 (natural protein)
chain: MTNPQFAGHPFGTTVTAETLRNTFAPLTQWEDKYRQLIMLGKQLPALPDELKAQAKEIAGCENRVWLGYTVAENGKMHFFGDSEGRIVRGLLAVLLTAVEGKTAAELQAQSPLALFDELGLRAQLSASRSQGLNALSEAIIAATKQV
For B1, the stoichiometry N in series [1] came to 2.
